Laboratory results taken from PMC7022712, “Functional Analysis of DNMT3A DNA Methyltransferase Mutations Reported in Patients with Acute Myeloid Leukemia”.

What was measured:
Dnmt3a-CD F162V = Dnmt3a-CD F162V (Mus musculus, UniProt O88508 608-908, F748V); experiment: fluorescence polarization; 100 uM AdoHcy; no plateau reached; Buffer A: 20 mM HEPES pH 7.5, 100 mM KCl, 1 mM EDTA, 1 mM DTT, 100 uM AdoHcy, 25 C; DNA 100 nM (Methods) or 10 nM (Figure 6 legend); Hill fit; conditions: protein: recombinant; tags: C-terminal His6; chain copies: 2; label: 5'-FAM on strand 1 via aminohexyl linker; blunt
Dnmt3a-CD S124C = Dnmt3a-CD S124C (Mus musculus, UniProt O88508 608-908, S710C); experiment: fluorescence polarization; 100 uM AdoHcy; Buffer A: 20 mM HEPES pH 7.5, 100 mM KCl, 1 mM EDTA, 1 mM DTT, 100 uM AdoHcy, 25 C; DNA 100 nM (Methods) or 10 nM (Figure 6 legend); Hill fit; conditions: protein: recombinant; tags: C-terminal His6; chain copies: 2; label: 5'-FAM on strand 1 via aminohexyl linker; blunt
Dnmt3a-CD WT = Dnmt3a-CD WT (Mus musculus, UniProt O88508 608-908); experiment: as above; conditions: protein: recombinant; tags: C-terminal His6 (Results); chain copies: 2; label: 5'-FAM on strand 1 via aminohexyl linker; blunt
Dnmt3a-CD R146H = Dnmt3a-CD R146H (Mus musculus, UniProt O88508 608-908, R732H); experiment: as above; conditions: protein: recombinant; tags: C-terminal His6; chain copies: 2; label: 5'-FAM on strand 1 via aminohexyl linker; blunt
Dnmt3a-CD R45W = Dnmt3a-CD R45W (Mus musculus, UniProt O88508 608-908, R631W); experiment: as above; conditions: protein: recombinant; tags: C-terminal His6; chain copies: 2; label: 5'-FAM on strand 1 via aminohexyl linker; blunt
Sequence of Dnmt3a-CD R45W (O88508 608-908 R631W): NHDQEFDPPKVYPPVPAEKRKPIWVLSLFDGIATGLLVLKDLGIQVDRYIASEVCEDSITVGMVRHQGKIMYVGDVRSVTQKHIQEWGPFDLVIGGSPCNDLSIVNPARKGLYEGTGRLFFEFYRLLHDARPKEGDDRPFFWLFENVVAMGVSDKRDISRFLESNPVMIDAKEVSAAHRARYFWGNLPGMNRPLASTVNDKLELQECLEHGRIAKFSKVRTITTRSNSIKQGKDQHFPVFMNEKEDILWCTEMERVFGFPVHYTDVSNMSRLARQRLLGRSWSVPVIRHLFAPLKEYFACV

Sequence of Dnmt3a-CD F162V (O88508 608-908 F748V): as the sequence (O88508 608-908 R631W) above, with W24R, F141V counted along it
Sequence of Dnmt3a-CD WT (O88508 608-908): as the sequence (O88508 608-908 R631W) above, with W24R counted along it
Sequence of Dnmt3a-CD S124C (O88508 608-908 S710C): as the sequence (O88508 608-908 R631W) above, with W24R, S103C counted along it
Sequence of Dnmt3a-CD R146H (O88508 608-908 R732H): as the sequence (O88508 608-908 R631W) above, with W24R, R125H counted along it

B1: fCG/CG (dsDNA)
DNA 1: CTGAATACTACTTGCGCTCTCTAACCTGAT
DNA 2: ATCAGGTTAGAGAGCGCAAGTAGTATTCAG
Kd (Dnmt3a-CD F162V): 232 ± 32 nM | Kd (Dnmt3a-CD S124C): 127 ± 44 nM | Kd (Dnmt3a-CD WT): 77 ± 6 nM | binding result (Dnmt3a-CD R146H): no binding | binding result (Dnmt3a-CD R45W): no binding
